Assay results taken from paper PMC7566517.

What follows are substances tested against HER3 on HER3-overexpressing HEK293 cells (human) (UniProt P21860) (assay: flow cytometry on cells; stable HEK293 cells expressing HER3 or HER4; purified NRG-1 mutants at 1 and 10 μg/mL, 4 °C, 1 h; goat antihuman Alexa Fluor 647).
Chain of HER3 on HER3-overexpressing HEK293 cells (human) (P21860 20-1342): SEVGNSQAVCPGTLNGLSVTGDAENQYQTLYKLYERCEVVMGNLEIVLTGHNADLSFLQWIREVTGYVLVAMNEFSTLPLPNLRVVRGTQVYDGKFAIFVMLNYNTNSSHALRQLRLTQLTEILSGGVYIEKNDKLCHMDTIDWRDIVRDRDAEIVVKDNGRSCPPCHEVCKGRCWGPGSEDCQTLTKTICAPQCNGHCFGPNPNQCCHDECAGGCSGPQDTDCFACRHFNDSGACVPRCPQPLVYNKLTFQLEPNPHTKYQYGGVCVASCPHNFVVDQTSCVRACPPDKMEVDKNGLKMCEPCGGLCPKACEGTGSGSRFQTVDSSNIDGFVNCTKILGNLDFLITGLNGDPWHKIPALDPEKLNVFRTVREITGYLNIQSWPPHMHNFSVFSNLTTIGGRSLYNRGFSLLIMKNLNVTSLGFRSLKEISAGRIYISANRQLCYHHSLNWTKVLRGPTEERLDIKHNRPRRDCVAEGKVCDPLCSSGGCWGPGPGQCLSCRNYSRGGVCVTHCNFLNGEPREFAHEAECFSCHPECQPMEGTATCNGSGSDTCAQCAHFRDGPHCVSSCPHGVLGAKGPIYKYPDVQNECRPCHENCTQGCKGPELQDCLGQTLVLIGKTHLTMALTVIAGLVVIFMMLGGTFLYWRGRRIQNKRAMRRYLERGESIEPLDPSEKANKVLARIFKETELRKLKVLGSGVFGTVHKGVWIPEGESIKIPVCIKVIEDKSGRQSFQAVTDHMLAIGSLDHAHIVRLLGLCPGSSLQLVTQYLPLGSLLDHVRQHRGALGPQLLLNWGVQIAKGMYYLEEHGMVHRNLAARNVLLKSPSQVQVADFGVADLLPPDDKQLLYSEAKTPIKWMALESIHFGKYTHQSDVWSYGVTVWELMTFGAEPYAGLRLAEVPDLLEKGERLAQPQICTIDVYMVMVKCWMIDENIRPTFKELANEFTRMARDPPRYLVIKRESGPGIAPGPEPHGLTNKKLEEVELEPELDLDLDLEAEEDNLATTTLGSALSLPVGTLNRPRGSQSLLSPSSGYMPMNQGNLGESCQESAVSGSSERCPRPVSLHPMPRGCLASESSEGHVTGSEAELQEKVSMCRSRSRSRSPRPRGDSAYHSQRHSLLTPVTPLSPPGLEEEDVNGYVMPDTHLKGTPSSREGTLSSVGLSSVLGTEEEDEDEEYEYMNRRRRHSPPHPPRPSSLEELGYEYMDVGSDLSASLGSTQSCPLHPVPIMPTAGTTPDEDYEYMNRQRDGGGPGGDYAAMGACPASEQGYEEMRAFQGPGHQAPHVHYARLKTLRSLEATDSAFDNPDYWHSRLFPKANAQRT

| ratio of median binding fluorescence to the parental clone | Substance |
| --- | --- |
| < 0.8 | NRG1-MFc variant E8L (Fc fusion) |
| < 0.8 | NRG1-MFc variant H2E (Fc fusion) |
| < 0.8 | NRG1-MFc variant H2T (Fc fusion) |
| < 0.8 | NRG1-MFc variant K24G (Fc fusion) |
| < 0.8 | NRG1-MFc variant P29D (Fc fusion) |
| < 0.8 | NRG1-MFc variant P29L (Fc fusion) |
| < 0.8 | NRG1-MFc variant T41A (Fc fusion) |
